According to PMC10763354:

Tests used:
[1] = biological target: leucine-rich repeat containing 19 (LRRC19) protein (UniProt Q9H756); test: MST; Monolith NT.115; NT647-labelled LRRC19 and DVF in the presence of typhaneoside; MST buffer (50 mM Tris-HCl pH 7.4, 150 mM NaCl, 10 mM MgCl2)
[2] = biological target: leucine-rich repeat containing 19 (LRRC19) protein (UniProt Q9H756); test: SPR; BIACORE 3000, 25 °C; LRRC19 immobilised on a CM5 chip (EDC/NHS); DVF in Tris buffered saline injected at 30 μL/min, at least 5 concentrations, 180 s binding, 300 s dissociation

Sequence of leucine-rich repeat containing 19 (LRRC19) protein (Q9H756 25-270): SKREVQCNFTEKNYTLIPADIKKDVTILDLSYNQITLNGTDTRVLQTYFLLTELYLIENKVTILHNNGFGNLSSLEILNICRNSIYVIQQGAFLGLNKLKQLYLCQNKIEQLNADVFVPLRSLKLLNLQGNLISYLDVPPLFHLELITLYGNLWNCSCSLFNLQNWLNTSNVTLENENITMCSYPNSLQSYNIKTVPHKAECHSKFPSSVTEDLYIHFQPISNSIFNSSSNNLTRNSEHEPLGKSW

“Desulfovibrio vulgaris flagellin (natural protein)” showed a fold reduction of the binding affinity by typhaneoside (against DVF-LRRC19 without it) [1] of 400 fold and a Kd [2] of 35 µM.
